In article PMC6906086:

Tests used:
Lsr2BD T112D = Lsr2BD T112D (Mycobacterium tuberculosis H37Rv, UniProt P9WIP7 66-112, T112D); assay: fluorescence anisotropy; settings: protein: recombinant, blunt
Lsr2BD T112A = Lsr2BD T112A (Mycobacterium tuberculosis H37Rv, UniProt P9WIP7 66-112, T112A); assay: fluorescence anisotropy; pH 7.5; 4 nM DNA; settings: protein: recombinant; label: 5' Alexa Fluor 488; blunt
Lsr2BD WT = Lsr2BD WT (Mycobacterium tuberculosis H37Rv, UniProt P9WIP7 66-112); assay: fluorescence anisotropy; settings: protein: recombinant; tags: 6xHis; blunt
Lsr2 = Lsr2 (Mycobacterium tuberculosis H37Rv, UniProt P9WIP7 1-112); assay: EMSA; 0.95-7.6 uM Lsr2; settings: protein: recombinant; (pET15-TEV, Ni-NTA); chain copies: 2; blunt

B1: AT-rich 14-mer (dsDNA)
DNA 1: CGCGCATATATGCG
DNA 2: CGCATATATGCGCG
- binding result (Lsr2BD T112D; label: 5' Alexa Fluor 488): no binding
- Kd (Lsr2BD T112A): 20 ± 8 nM

B2: GC-rich fragment (leuS MUT sequence), anisotropy (dsDNA)
DNA 1: AACTCGGCGAGGTCGGTCAG
DNA 2: CTGACCGACCTCGCCGAGTT
- binding result (Lsr2BD T112D): no binding
- binding result (Lsr2BD WT): no binding

B3: leuS MUT (dsDNA)
DNA 1: AACTCGGCGAGGTCGGTCAG
DNA 2: CTGACCGACCTCGCCGAGTT
- binding result (Lsr2): binds
